Columns and labels:
HPV16 E2 [1] = target: T1, HPV16 E2 (Human papillomavirus type 16, UniProt P03120 1-365); test: fluorescence polarization; 5 mM Mg2+; FP: 20 mM Tris-HCl pH 7.0, 10 mM NaCl, 0.1 mg/ml BSA, 5 mM MgCl2, 1 mM DTT, room temperature, 60 min; 50 nM probe, 0-200 nM protein; conditions: protein: recombinant; tags: His (pET28a, Ni-NTA); HA (blots); chain copies: 2; label: 5' Cy3; single strand
HPV16 E1 = target: T2, HPV16 E1 (Human papillomavirus type 16, UniProt P03114 1-649); test: as above; conditions: protein: recombinant; tags: His (pET28a, Ni-NTA); Myc (co-IP); chain copies: 6; label: 5' Cy3; single strand
T2 sequence: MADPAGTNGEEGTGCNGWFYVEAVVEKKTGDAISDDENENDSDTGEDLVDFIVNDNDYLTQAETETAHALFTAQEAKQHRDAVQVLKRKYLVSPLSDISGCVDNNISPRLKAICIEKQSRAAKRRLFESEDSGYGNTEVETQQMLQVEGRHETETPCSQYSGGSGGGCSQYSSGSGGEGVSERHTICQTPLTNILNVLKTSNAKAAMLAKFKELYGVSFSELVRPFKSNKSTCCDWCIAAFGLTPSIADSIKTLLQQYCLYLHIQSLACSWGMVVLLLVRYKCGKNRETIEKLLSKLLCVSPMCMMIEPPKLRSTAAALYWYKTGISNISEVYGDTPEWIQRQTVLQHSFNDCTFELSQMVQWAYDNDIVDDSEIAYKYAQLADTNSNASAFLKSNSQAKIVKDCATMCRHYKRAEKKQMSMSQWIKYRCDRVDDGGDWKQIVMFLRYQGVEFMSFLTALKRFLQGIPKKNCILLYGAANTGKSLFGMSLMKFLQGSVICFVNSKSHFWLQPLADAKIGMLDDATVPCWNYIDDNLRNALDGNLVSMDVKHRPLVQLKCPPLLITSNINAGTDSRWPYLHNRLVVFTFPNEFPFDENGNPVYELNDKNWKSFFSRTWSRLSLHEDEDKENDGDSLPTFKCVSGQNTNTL

HPV16 E2 [2] = target: T1, HPV16 E2; test: fluorescence polarization; 5 mM Mg2+; separate experiment alongside E1; FP: 20 mM Tris-HCl pH 7.0, 10 mM NaCl, 0.1 mg/ml BSA, 5 mM MgCl2, 1 mM DTT, room temperature, 60 min; 50 nM probe, 0-200 nM protein; conditions: protein: recombinant; tags: His (pET28a, Ni-NTA); HA (blots); chain copies: 2; label: 5' Cy3; single strand

T1 sequence (P03120 whole entry): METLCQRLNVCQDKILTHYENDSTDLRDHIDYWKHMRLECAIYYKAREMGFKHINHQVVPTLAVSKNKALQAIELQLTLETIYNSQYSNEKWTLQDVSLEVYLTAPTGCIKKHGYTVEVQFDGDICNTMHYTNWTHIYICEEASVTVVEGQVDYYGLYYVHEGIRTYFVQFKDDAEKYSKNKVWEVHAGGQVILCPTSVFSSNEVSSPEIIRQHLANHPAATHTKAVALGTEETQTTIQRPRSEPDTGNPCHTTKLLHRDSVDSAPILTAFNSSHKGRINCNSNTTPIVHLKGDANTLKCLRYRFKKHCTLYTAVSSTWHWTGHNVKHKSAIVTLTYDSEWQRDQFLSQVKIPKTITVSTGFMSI

For GCGTCTTTACGGGTGCTTAAAAACAAAAACAAAAACAAAA (ssDNA) [Cy3-labeled 40-nt ssDNA (FP probe)], the Kd (HPV16 E2 [1]) was 24 ± 8 nM, the Kd (HPV16 E1) was 172 ± 88 nM and the Kd (HPV16 E2 [2]) was 28 ± 10 nM.

Reference: paper PMC13284460, “HPV16 E2 protein possesses intrinsic helicase activity and sterically hinders E1 function through direct interaction”
